{"source": "patent US8748112B2", "about": "“Methods of determining cancer cell responsiveness to a notch inhibitory agent” (Trojan Technologies, Ltd., priority 2007, dated 2014)", "key": {"[1]": {"assay": "In vivo maximum tolerated dose study", "parameters": "species or system mice", "description": "ANTP/DN-MAML tail vein administration was started when the mice reached an age of 12 weeks. Mice were continuously monitored for signs of hypoglycemic shock or drug side effects and were sacrificed if body weight loss exceeded 15%. Various dosages were tested starting at 4 mg/kg/day. […] This experiment was terminated by sacrificing the animals three days after injection."}, "Colo205 tumors": {"test_system": "Colo205 tumors", "assay": "Colon cancer xenograft model", "assay_type": "in vivo, female nude mice", "conditions": "0.2 ml of 4 mg/ml every other day, Colo205 xenografts", "description": "High levels of Notch are expressed in colon cancer cells. ANTP/DN-MAML was administered to female nude mice bearing xenografted Colo205 tumors. Injections of 0.2 ml of 4 mg/ml ANTP/DN-MAML protein were administered to the mice every other day. This dose is equivalent to 2 g of ANTP/DN-MAML fusion protein per patient."}, "[2]": {"assay": "Biodistribution by Western blot of organs after intravenous injection", "assay_type": "in vivo, CD1 nude mice", "conditions": "4 mg/kg intravenously via tail vein, 2 hours after injection", "description": "To determine whether Antennapedia could be used to deliver the DN-MAML in vivo, CD1 nude mice were injected intravenously via tail vein with 4 mg/kg of the ANTP/DN-MAML fusion protein. The mice were perfused for 5 min with phosphate-buffered saline and sacrificed 2 hours following the injection. The expression of ANTP/DN-MAML in each organ was determined by Western blot analysis. […] As such, the targeted delivery system of the present invention may have wide applications in the administration of therapeutic proteins to the central nervous system."}, "[3]": {"test_system": "MDA MB231 xenograft tumor", "assay": "Penetration into outer, middle and inner core of xenografted mammary tumors (Western blot, immunohistochemistry)", "assay_type": "in vivo, CD1 Nude mice", "conditions": "tail vein injection", "description": "Purified ANTP/DN-MAML fusion protein was injected into CD1 Nude mice xenografted with MDA MB231 human mammary epithelial breast cancer cells via the tail vein. The mice were perfused for 5 min with phosphate-buffered saline and sacrificed 2 hours following the injection. The tumor was removed and dissected under a stereoscope to separate the outer, middle, and inner core of the tumor. The ANTP/DN-MAML in each core of the tumor was determined by Western blot.\nIn order to establish the localization of ANTP/DN-MAML within the tumors, immunohistochemistry on the above mammary cancer samples was performed."}, "Notch (NICD)": {"test_system": "Notch (NICD)", "assay": "Notch inhibition, Western blot of activated Notch (NICD)", "assay_type": "cell-based, human", "conditions": "MDA-MB231 cells treated for two hours", "description": "To investigate the potential role of ANTP/DN-MAML to inhibit Notch signaling activation the high metastatic mammary epithelial cell line MDA-MB231 cell line was treated with the ANTP/DN-MAML fusion protein for two hours. Total protein was extracted from cells using SDS buffer. Total protein concentrations were determined using the BCA protein assay kit. Total protein ([…]) was diluted in 5× sample buffer ([…] Tris-HCl pH 6.8, 500 mM dithiotheitol, 10% SDS, 0.5% bromophenol blue, 50% glycerol), heated at 100° C. and analyzed by SDS-PAGE. Electrophoresis was carried out in running buffer (25 mM Tris HCl, 250 mM glycine, 0.1% SDS) for 60 minutes or until the bromophenol blue had run out of the gel. Separated proteins were transferred to nitrocellulose membrane in ice cold transfer buffer (39 mM glycine, 48 mM Tris HCl) electrophoretically for 90 minutes at 100V. Western blots were probed with the […] in blocking buffer at 4° C. over night with anti-Mouse IgG peroxidase produced in goat […] (Sigma A9917). Nitrocellulose membranes were washed 4 times for five minutes each in TBS-T buffer. […]"}, "Breast cancer xenografts": {"test_system": "Breast cancer xenografts", "assay": "In vivo tumor reduction in breast cancer xenografts", "parameters": "species or system mice", "conditions": "4 mg/kg every two days, n=6 per group, vs PBS control", "description": "Breast cancer xenografts were established in mice. The mice were divided into two groups, and injected every two days with either PBS as a control, or with 4 mg/kg ANTP/DN-MAML fusion protein (n=6 per group) (FIG. 4A). Control mice treated with PBS developed rapidly growing tumors. The control mice were euthanized after twenty days. […] (FIG. 4B)."}, "[4]": {"assay": "Immunogenicity in immuno-competent mice by ELISA", "assay_type": "in vivo", "conditions": "intravenous 0.2 ml, 2.5 mg/ml without adjuvant, once per day for 5 days; 2.5 mg per week; monitored over 4 months", "description": "The immunogenicity of ANTP/DN-MAML was investigated in immuno-competent mice. Animals were immunized intravenously with ANTP/DN-MAML (0.2 ml, 2.5 mg/ml) without adjuvant, once per day for 5 days. Mice were bled once per week over a 4-month period, and the immune response monitored by ELISA. Blood samples were diluted 1:10, 1:100 and 1:1000 in PBS, and the immune response was monitored by ELISA on native ANTP/DN-MAML (coated at 50 μg/ml) and detected using anti-mouse antibodies. […] This dose is equivalent to 100 mg/kg in humans."}, "MDA-MB231 cells": {"test_system": "MDA-MB231 cells", "assay": "Cellular localization by immunostaining (nuclear transduction)", "assay_type": "cell-based, human", "conditions": "50 μM, two hours, serum free media, anti-His immunostaining", "description": "To determine the cellular localization of the ANTP/DN-MAML (TR4) fusion protein, immunostaining on human mammary epithelial breast cancer MDA-MB231 cells was carried out. MDA-MB231 cells were cultured to sub-confluence in Dulbecco's modified Eagle's medium containing 10% calf serum at 37° C. The coverslips with cells attached were washed, and incubated with ANTP/DN-MAML purified fusion protein in serum free media for two hours at a concentration of 50 μM. Cells were washed three times and fixed with 4% paraformaldehyde for 15 minutes. After brief washes, the coverslips were incubated with blocking solution and subsequently with anti-His primary and FITC-conjugated secondary antibody."}}, "data": [{"substance": "ANTP/DN-MAML: 14.18 KDa fusion protein of antennapedia homeodomain, 62 amino acid DN/MAML sequence and pentahistidine tag (SEQ ID NO.:2)", "values": [{"measurement": "side effects at the maximum tolerated dose", "setting": "[1]; 57 mg/kg/day, tail vein", "result": "loss of appetite, weight loss and hypoglycemia"}, {"measurement": "maximum tolerated dose", "setting": "[1]; tail vein administration, mice aged 12 weeks", "result": 57, "unit": "mg/kg/day"}, {"measurement": "colon cancer cell growth in vivo", "setting": "Colo205 tumors", "result": "reduced colon cancer cell growth in vivo"}, {"measurement": "detection in brain (blood-brain barrier crossing)", "setting": "[2]", "result": "detected in the brains"}, {"measurement": "signal in liver, kidney, heart, lung, spleen and brain tissue vs PBS injected mice", "setting": "[2]; Western blot", "result": "significant signal"}, {"measurement": "detection in outer, middle and inner core of the tumor", "setting": "[3]; 2 hours, Western blot, vs PBS control", "result": "detected in the outer, middle and inner core of the tumor"}, {"measurement": "localization within the tumors (immunohistochemistry)", "setting": "[3]; MDA MB231 xenograft", "result": "Intense ANTP/DN-MAML staining within the nucleus of mammary cancer cells"}, {"measurement": "downregulation of Notch activation (NICD)", "setting": "Notch (NICD)", "result": "Downregulation of Notch activation occurred"}, {"measurement": "tumor volume", "setting": "Breast cancer xenografts", "result": "no increase in tumor volume after thirty-two days"}, {"measurement": "immune response (ELISA)", "setting": "[4]", "result": "does not raise an immune response"}, {"measurement": "cellular localization", "setting": "MDA-MB231 cells", "result": "nuclear localization"}]}, {"substance": "ANTP: Trojan peptide; 60 amino acid Drosophila antennapedia homeodomain (SEQ ID NO.:4), used alone as control [reference compound]", "values": [{"measurement": "downregulation of Notch activation (NICD)", "setting": "Notch (NICD)", "result": "not in cells treated with ANTP alone"}]}]}
